Here are results for four molecules from EP2127683A1 (Metheresis Translational Research SA, dated 2009).

A value given as a limit tells only on which side of the number the result lay.

Assay [1] has as its target T1, Met on human tumour cells (GTL-16, FaDu) (human, UniProt P08581 25-1390).
T1 construct: whole, on cells; Endogenous Met on 2% paraformaldehyde-fixed cells; also called Hepatocyte Growth Factor Receptor; HGFR
In words: cell-binding assay (Lindmo), radiolabelled antibody on serial dilution of paraformaldehyde-fixed GTL-16 cells.

Assay [2] deals with T1, Met on human tumour cells (GTL-16, FaDu). In words: cell-binding assay (Lindmo), radiolabelled antibody on paraformaldehyde-fixed GTL-16 cells, double-reciprocal plot extrapolated.
Assay [3] has the same target. In words: immunocytochemistry on fixed cytospins and immunohistochemistry on frozen xenograft sections, streptavidin-alkaline phosphatase.
The target of a further assay is T2, Met (UniProt P08581 25-932, limits assumed).
T2 construct: Target of the stated Kd; The assay and the construct are not described; also called Hepatocyte Growth Factor Receptor; HGFR
T2 sequence (P08581 25-932 limits assumed): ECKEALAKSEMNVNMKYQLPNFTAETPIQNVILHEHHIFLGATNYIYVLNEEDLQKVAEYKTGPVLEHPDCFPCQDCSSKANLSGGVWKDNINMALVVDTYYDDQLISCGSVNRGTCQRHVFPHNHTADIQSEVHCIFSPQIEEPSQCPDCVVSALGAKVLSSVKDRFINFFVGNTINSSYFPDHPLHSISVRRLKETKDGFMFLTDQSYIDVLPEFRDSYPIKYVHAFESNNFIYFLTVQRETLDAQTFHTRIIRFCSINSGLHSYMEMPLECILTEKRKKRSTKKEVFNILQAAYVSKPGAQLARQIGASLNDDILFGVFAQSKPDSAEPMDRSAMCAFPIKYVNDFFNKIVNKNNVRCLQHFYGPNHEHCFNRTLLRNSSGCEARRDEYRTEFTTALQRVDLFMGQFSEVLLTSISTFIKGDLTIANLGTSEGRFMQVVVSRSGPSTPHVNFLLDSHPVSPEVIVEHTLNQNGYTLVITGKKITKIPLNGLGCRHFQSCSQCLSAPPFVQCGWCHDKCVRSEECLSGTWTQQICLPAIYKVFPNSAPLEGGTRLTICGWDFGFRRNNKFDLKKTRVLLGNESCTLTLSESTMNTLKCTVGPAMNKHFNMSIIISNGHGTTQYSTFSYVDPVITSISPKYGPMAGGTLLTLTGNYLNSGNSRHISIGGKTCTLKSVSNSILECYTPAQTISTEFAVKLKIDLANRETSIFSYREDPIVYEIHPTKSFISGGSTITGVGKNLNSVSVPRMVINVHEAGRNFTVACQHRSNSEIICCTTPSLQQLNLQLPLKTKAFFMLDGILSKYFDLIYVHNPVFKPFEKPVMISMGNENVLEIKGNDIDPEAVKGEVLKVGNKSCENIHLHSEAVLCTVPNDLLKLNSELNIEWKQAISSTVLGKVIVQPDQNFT

T1 sequence (P08581 25-1390): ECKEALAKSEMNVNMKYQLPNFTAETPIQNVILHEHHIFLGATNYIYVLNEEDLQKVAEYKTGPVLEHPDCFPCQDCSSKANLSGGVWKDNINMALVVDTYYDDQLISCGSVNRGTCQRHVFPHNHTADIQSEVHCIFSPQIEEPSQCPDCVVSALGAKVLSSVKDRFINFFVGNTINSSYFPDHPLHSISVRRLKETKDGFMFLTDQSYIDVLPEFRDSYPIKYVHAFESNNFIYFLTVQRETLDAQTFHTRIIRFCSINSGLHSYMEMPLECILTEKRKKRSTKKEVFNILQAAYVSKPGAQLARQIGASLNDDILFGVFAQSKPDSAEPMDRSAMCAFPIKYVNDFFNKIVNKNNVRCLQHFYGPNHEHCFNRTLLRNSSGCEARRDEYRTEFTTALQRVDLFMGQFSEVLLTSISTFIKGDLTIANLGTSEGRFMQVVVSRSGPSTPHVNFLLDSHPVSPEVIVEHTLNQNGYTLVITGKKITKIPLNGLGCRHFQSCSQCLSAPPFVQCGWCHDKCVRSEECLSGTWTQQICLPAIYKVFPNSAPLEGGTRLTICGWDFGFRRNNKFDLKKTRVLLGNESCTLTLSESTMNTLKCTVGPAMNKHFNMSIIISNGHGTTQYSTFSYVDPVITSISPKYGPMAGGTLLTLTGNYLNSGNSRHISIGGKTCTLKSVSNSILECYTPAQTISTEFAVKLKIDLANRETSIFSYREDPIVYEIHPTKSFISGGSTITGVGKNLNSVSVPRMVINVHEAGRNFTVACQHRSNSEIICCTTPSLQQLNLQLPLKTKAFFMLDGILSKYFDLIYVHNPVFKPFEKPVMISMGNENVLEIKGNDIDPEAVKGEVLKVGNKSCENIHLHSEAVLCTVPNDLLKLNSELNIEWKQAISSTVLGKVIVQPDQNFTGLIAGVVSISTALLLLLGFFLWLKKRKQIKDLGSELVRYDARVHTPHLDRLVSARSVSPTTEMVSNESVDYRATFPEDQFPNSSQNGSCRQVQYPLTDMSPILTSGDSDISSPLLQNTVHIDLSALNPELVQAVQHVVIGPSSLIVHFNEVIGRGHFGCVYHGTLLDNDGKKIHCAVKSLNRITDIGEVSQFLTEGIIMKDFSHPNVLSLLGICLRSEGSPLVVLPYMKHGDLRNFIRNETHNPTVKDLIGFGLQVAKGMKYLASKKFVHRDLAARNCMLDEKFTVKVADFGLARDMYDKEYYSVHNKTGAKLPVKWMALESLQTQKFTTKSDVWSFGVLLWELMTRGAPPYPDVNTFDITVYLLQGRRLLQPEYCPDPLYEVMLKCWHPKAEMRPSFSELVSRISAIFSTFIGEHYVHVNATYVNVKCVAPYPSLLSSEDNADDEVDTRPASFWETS

B1: 89Zr-N-sucDf-DN30 (antibody, mouse IgG2a, kappa, V domains shown)
VH: QVQLQQPGTELVKPGASVKLSCKASGYTFTSYWIHWVKQRPGQGLEWIGEINPSSGRTNYNEKFKNKVTVTVDKSSTTAYMQLSNLTSEDSAVYYCASRGYWGQGTTLTVSS
VL: DIVLTQSPASLAVSLGQRATISCKASQSVDYDGGSYMSWFQQRPGQPPKLLISAASNLESGIPARFSGSGSGTDFTLNIHPVEEEDVATYYCQQSYEDPLTFGAGTKLELKR
modifications: N-succinyl-desferal (N-sucDf) chelate carrying 89Zr coupled to lysine residues, approximately 1 N-sucDf moiety per DN30 molecule; positions not given
Molecule B1 had an immunoreactivity at the highest cell concentration in assay [1] of more than 70%. Also, the immunoreactivity at infinite antigen excess in assay [2] was more than 95%.

B2: biotinylated DN30 (antibody, mouse IgG2a, kappa, V domains shown)
VH: B1 VH
VL: B1 VL
modifications: biotinylated; positions not given
With B2, the binding result in assay [3] is “binds”.

B3: 131I-DN30 (antibody, mouse IgG2a, kappa, V domains shown)
VH: B1 VH
VL: B1 VL
modifications: radioiodinated with 131I (IODO-GEN method); positions not given
In turn, B3 gave an immunoreactivity at the highest cell concentration in assay [1] of more than 70%. In addition, the immunoreactivity at infinite antigen excess in assay [2] was more than 95%.

B4: murine IgG2a MAb DN30 (antibody, V domains shown)
VH: B1 VH
VL: B1 VL
notes: Murine IgG2a from the hybridoma; also called anti-Met monoclonal antibody produced by the hybridoma cell line ICLC PD 05006
As to B4, in the assay with Met, the Kd (usually a measure of binding affinity in units of concentration) was determined as 2.64 nM.
